Holding throughout (assay): cell_activity; human T cells, 1 ug mRNA, day 3
Conditions in all cases: tags: N-terminal SV40 NLS

For data set [1], the target named is T1, B2M 13-14x.202 (Artificial Sequence).
T1 chain: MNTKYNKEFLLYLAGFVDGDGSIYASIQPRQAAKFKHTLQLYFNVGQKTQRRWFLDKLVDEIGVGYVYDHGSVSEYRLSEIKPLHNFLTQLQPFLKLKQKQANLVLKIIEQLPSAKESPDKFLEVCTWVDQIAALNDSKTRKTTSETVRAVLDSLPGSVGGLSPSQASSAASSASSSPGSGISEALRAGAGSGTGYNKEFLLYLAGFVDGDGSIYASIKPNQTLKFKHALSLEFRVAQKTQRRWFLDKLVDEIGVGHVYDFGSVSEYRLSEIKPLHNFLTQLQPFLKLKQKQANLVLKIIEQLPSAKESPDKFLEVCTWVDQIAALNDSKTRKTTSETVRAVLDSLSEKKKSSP
Here is the method: (§1) Donor human T cells were stimulated with anti-CD3 and anti-CD28 antibodies for 3 days, then electroporated with mRNA encoding a given B2M 13-14 meganuclease (1 μg) using the Amaxa 4D-Nucleofector (Lonza) according to the manufacturer's instructions. To look for the loss of B2M surface expression, cells were stained with an antibody recognizing β-2 microglobulin (BD Biosciences) as well as an antibody recognizing CD3 (BioLegend), a marker of T cells.

Data set [2] has as its target T2, B2M 13-14x.286 (Artificial Sequence).
T2 chain: T1 chain with A32H, A33S, T38S, N221M, T223P, A229G, S231T, A237S
The method, then:
as §1

Data set [3] has as its target T3, B2M 13-14x.377 (Artificial Sequence).
T3 chain: T1 chain with S217V, T223A, A229T, A237S
Here is the method:
as §1

Data set [4] addresses T4, B2M 13-14x.479 (Artificial Sequence).
T4 chain: T1 chain with A32R, A33S, T38S, S217R, N221A, T223N, S231H, A237T, F261V, E266D
Here is the method: as §1

Data set [5] addresses T5, B2M 13-14x.287 (Artificial Sequence).
T5 chain: T1 chain with A32H, A33S, T38S, N221C, T223C, A229Q, S231F, A237T, F261S, E266D
Here is the method:
as §1

In data set [6] the target is T6, B2M 13-14x.456 (Artificial Sequence).
T6 chain: T1 chain with S217V, N221Q, T223H, A229Q, S231F, A237S, F261S
Here is the method: as §1

The target in data set [7] is T7, B2M 13-14x.457 (Artificial Sequence).
T7 chain: T1 chain with S217K, N221Q, T223S, A229Y, S231N, A237T, F261C, E266D
Here is the method:
as §1

Substitutions are numbered along the chain they refer to. Names may count otherwise.

Among the data in patent publication US20210032664, “ENGINEERED MEGANUCLEASES WITH RECOGNITION SEQUENCES FOUND IN THE HUMAN BETA-2 MICROGLOBULIN GENE” (Precision Biosciences, Inc., published 2021) are activity values, retold here.

B1: B2M 13-14 recognition sequence (dsDNA)
DNA 1: CTATCTCTTGTACTACACTGAA
DNA 2: TTCAGTGTAGTACAAGAGATAG
As for B1, the activity was 60.9 % B2M-negative in data set [1]; 44.6 % B2M-negative in data set [2]; 75.9 % B2M-negative in data set [3]; 67.2 % B2M-negative in data set [4]; 75.7 % B2M-negative in data set [5]; 15.7 % B2M-negative in data set [6]. In data set [7], this molecule had an activity of 19.7 % B2M-negative.
